Test results published in the supplement of paper PMC10567573.
± gives the standard deviation.

Experiment: protein stability index of a GFP-peptide fusion (GPS, HEK-293T) (PSI 1-6); higher = more stable
Settings: c terminus: a fixed tail appended
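Further: 24-mer peptide tiles fused after GFP, lentivirally expressed, FACS-sorted into six equal bins by GFP/DsRed ratio, decoded by Illumina sequencing, PSI is the read-weighted mean bin number.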

Sequence | protein stability index (treatment: DMSO) | protein stability index (treatment: MLN4924 1 uM, 8 h)
VQWKEPEEPNGQIQGYRVYYTMDP [PTPRD] | 3.3 ± 0.16 | 3.17 ± 0.23
HEDHMVNLRYGFTKEVMNKYKVHG [PPEF2] | 3.24 ± 0.51 | 3.58 ± 0.53
HTSVVCYLLDYPNNLLSAPPPDVT [ANKRD17] | 2.46 ± 0.39 | 2.26 ± 0.44
AMFPETLDEGMQIPSTQFDAAHPT [CTNNB1] | 4.5 ± 0.091 | 4.49 ± 0.28
GSKFRYSGRTQAQTRRASALIDRP [EPB41L3] | 3.35 ± 0.41 | 3.44 ± 0.27
KLEPIKSRAPQLHLEYRFYKQLGS [CSNK1G1] | 2.06 ± 0.76 | 2.27 ± 0.21
HARNGLSLKEEHRAYDLLRAASEN [IKZF1] | 3.73 ± 0.28 | 4.03 ± 0.35
VELLPPAPKGKGRKPAAGAQSAGT [BRD3] | 4.58 ± 0.3 | 4.87 ± 0.42
FTKVVQPQEEIATKKLRLTKPSKS [INTS4] | 3.92 ± 0.57 | 4.07 ± 0.3
EKPLGRVGVFLDFESGSVSFLNVT [TRIM43] | 2.28 ± 0.33 | 2.17 ± 0.55
SPPAAPCPPPPGPAAAPEGDWARL [ZBED3] | 5.08 ± 0.16 | 5.07 ± 0.063
QNLLREKIMKLPLPESLKAYLTYF [PCMTD1] | 2.49 ± 0.53 | 2.12 ± 0.36
GADPKSVVCAFFKQGQCTKGDKCK [ZC3H15] | 3.82 ± 0.14 | 4.28 ± 0.37
FDRNADGYIDPEELAEIFRASGEH [TNNC2] | 5.32 ± 0.21 | 5.25 ± 0.2
DEIEFLKKLHEEELRDLQVSVESQ [PRPH] | 3.58 ± 0.7 | 4.07 ± 0.36
LGDTQFCFRFRQSSGRRVSLHCLL [DENND6A] | 2.89 ± 0.48 | 2.65 ± 0.59
LTNSEYRSEQSVKLRRQVIQVVLN [ZER1] | 2.51 ± 0.23 | 2.44 ± 0.48
KVLRKAGLSAGYVDAGAEPGRSRM [LPCAT4] | 3.6 ± 0.31 | 3.73 ± 0.25
ILIELAMRGRIYLEPPTMRKKRLL [GOLPH3L] | 2.66 ± 0.25 | 2.74 ± 0.66
YVPEKVKKAEKKLEENPYDLDAWS [CSTF3] | 3.06 ± 0.62 | 3.26 ± 0.87
QLIGSSNLFVMQVEMDIYTALKKW [GMCL1] | 2.57 ± 0.61 | 2.28 ± 0.81
VEPETRAVIRWMHSFNFVLSANLH [CPN1] | 3.1 ± 0.12 | 3.19 ± 0.27
MATRSSDWLRRPLGEDNQPETQLF [TLE6] | 3.91 ± 0.1 | 3.87 ± 0.1

Sequence | protein stability index (treatment: DMSO) | protein stability index (treatment: MLN4924 1 uM, 8 h)
LKKEPGHPWKWSNGKEFNNWFNVT [CD69] | 2.14 ± 0.13 | 2.23 ± 0.25
IGPLETMHLNAEGMLSYCDRYSEG [CRYL1] | 3.47 ± 0.48 | 3.27 ± 0.28
QPCSIVDVEFLPVYHPSPEESRDP [LPCAT4] | 4.84 ± 0.28 | 4.88 ± 0.38
MQNLNDRLASYLDKVRALEEANAD [KRT15] | 4.22 ± 0.32 | 4.37 ± 0.23
VQKDKYPEEFSLLKLQTKDGHRPE [SPATS1] | 4.64 ± 0.23 | 5 ± 0.33
DFCKVFLISGVTLDNCVEVGRIAN [KLHL13] | 2.47 ± 1.2 | 2.12 ± 0.47
AGRRMFPSYKVKVTGLNPKTKYIL [TBX5] | 2.12 ± 0.4 | 2.2 ± 0.29
HYEFNLSRMKFRGNGALSNISDLP [LCOR] | 2.7 ± 0.18 | 2.76 ± 0.23
LKYLHEQEILHRDLKLGNFFINEA [PLK2] | 1.85 ± 0.18 | 1.97 ± 0.3
DGLREQLQAPVPPDSVPSLQNMGL [PBXIP1] | 4.45 ± 0.1 | 4.4 ± 0.15
VIGALLRFNQAILVSRHDPASRRR [LPCAT4] | 2.28 ± 0.22 | 2.36 ± 0.19
QARLLNPSATRAKPGPQDTVERPF [NOP53] | 4.78 ± 0.24 | 4.85 ± 0.14
QRCQKCSWSQYEMPEFSSDSTMRI [RTP4] | 2.36 ± 0.18 | 2.42 ± 0.16
RASRTYELQNQLAACTRALESSEE [FSD1] | 5.01 ± 0.2 | 4.92 ± 0.26
SASSTGDLPKAKTRAADLLVNPLD [SRPK2] | 4.97 ± 0.29 | 4.99 ± 0.33
MQPPPPGPLGDCLRDWEDLQQDFQ [TMEM120A] | 4.86 ± 0.2 | 4.66 ± 0.2
DFFWNETWYLKTIDICHDHFGWYL [DHCR7] | 3.26 ± 0.74 | 2.81 ± 0.35
HLNGHAMCQTKHSPWADGTPCGPA [ADAMTS4] | 3.12 ± 0.35 | 3.11 ± 0.22
TIKPRRVEPVCSGLQAQILHCYRD [CHCHD6] | 2.98 ± 0.051 | 2.98 ± 0.21
QDKSESLSDNATAFSNRSKQLRRQ [VAMP4] | 5.36 ± 0.4 | 5.17 ± 0.21
ATDMISIFEPPVRNSGIIGGKYLG [EFHC1] | 2.92 ± 0.25 | 3.16 ± 0.21
KKKPGTAMCVGCGSQIHDQFILRV [ISL2] | 2.36 ± 0.37 | 2.23 ± 0.29
PSHGSLSHSKAPSGSQMSHNAVTS [NCF4] | 4.55 ± 0.1 | 4.83 ± 0.37

Sequence | protein stability index (treatment: DMSO) | protein stability index (treatment: MLN4924 1 uM, 8 h)
ALLFTGIAVLGIVMLKRIHSLYRR [SCAMP3] | 2.2 ± 0.52 | 1.96 ± 0.25
NDRLYAIGGNHLKGFSHLDVMLVE [KLHL14] | 2.35 ± 0.33 | 2.58 ± 0.17
RNQCRYCRLKKCFRAGMKKEAVQN [HNF4A] | 2.9 ± 0.33 | 3.19 ± 0.45
STLKKALPTLSHIQEAQSAWKDDF [YJU2B] | 3.53 ± 0.36 | 3.75 ± 0.09
LGIPKNPWLWSEQQVCQWLLWATN [ETS2] | 2.29 ± 0.3 | 2.33 ± 0.15
LVVLRFLTMNSEDERRDAEERASL [KCNK9] | 2.68 ± 0.15 | 2.62 ± 0.28
RQTVPPLTVRLHTQSVSECITEDG [PWWP2B] | 4.94 ± 0.11 | 4.7 ± 0.22
ESKLLRDLSAANEKNLLLQNQVDE [LRRC45] | 5.37 ± 0.2 | 5.15 ± 0.34
AALDGGRSLEELTRLAFELFAEEQ [LPCAT4] | 2.91 ± 0.24 | 3.33 ± 0.38
GIQPGQEPPVTMIFMGYQNVEDEA [PALM] | 3.94 ± 0.35 | 4.02 ± 0.24
EAFKKHSLDLLSKERELNGKLRHL [CCDC89] | 3.34 ± 0.25 | 3.38 ± 0.14
QEQLSLSQRQAKELKLEQQEAAER [LRRC45] | 5.5 ± 0.19 | 5.67 ± 0.22
IQSGAWVCYQYPGYRGYQYILECD [CRYBA1] | 2.39 ± 0.38 | 2.58 ± 0.59
FLVAEWNEPSINFYKRRGASDLSS [SAT1] | 2.32 ± 0.28 | 2.43 ± 0.45
LSCLHSVCEQCLQILYESCPKYKF [RNF208] | 2.2 ± 0.25 | 2.35 ± 0.51
HTPQSSVKTSVPSSKSSGDLVDLF [CLINT1] | 4.03 ± 0.16 | 4.26 ± 0.053
PNGLEAAYEFADRDEVRFFKGNKY [MMP1] | 3.74 ± 0.44 | 3.83 ± 0.3
YQDDPDLRFLLDQVQLGLRCCGAA [TSPAN10] | 2.56 ± 0.28 | 2.65 ± 0.22
SLNKQIAQLQDFVRAKGSQSGRHL [STX5] | 3.08 ± 0.23 | 3.14 ± 0.55
NGTKADGKDAKTTNGHGGEAAEGK [TRIM29] | 5.48 ± 0.2 | 5.55 ± 0.12
AGYYELAQVLLAMHANVEDRGIKG [ANKRD17] | 2.02 ± 0.21 | 1.96 ± 0.34
TEIAEQEGNQKGEQATSLAILRVI [KCNA1] | 3.75 ± 0.41 | 3.56 ± 0.2
LRCGNQGKGWKATRLFHDSAVTSV [DCAF4] | 2.19 ± 0.21 | 2.27 ± 0.22

Sequence | protein stability index (treatment: DMSO) | protein stability index (treatment: MLN4924 1 uM, 8 h)
CAERLQSEEQVSKNLFGPPLESAF [FCHO1] | 3.36 ± 1.1 | 3.58 ± 0.52
KCLSIMLAEWEANPLICPVCTKYN [RPAIN] | 2.8 ± 0.73 | 2.29 ± 0.19
LCQKQVKAQLPRRESERRNHSLAR [FBXO28] | 3.81 ± 0.14 | 4.23 ± 0.17
RKLSSAVRSGIVEYLSLVKGGQDV [PRIM1] | 2.68 ± 0.36 | 2.77 ± 0.36
MGSTESSEGRRVSFGVDEEERVRV [CHCHD6] | 5.15 ± 0.29 | 5.22 ± 0.13
RDVKKTGFVFGTTLIMLLSLAAFS [RTN3] | 3.03 ± 0.43 | 3.19 ± 0.39
QMLWELVLLGEPLVVMAPSPSESS [DENND6A] | 2.33 ± 0.72 | 2.17 ± 0.49
EDGVWYSVAPMNVRRGLAGATTLG [KLHL12] | 3.17 ± 0.23 | 3.3 ± 0.17
SYEKAVKTRVDLKELGQSQKEQGL [PDZK1] | 4.75 ± 0.15 | 4.84 ± 0.12
YQSKGYNDDYYEESYFTTRTYGEP [EMD] | 2.78 ± 0.2 | 3.22 ± 0.29
MGSSQATMTSSQSMNFSMMSTNTV [CLINT1] | 3.28 ± 0.27 | 3.64 ± 0.25
GYQMLGNVVTIGLAFFPFLHRLFR [PHTF1] | 3.71 ± 0.23 | 3.68 ± 0.34
RHDGYATNDGNHPSCQETRDYAPP [RBMY1A1] | 5 ± 0.31 | 4.93 ± 0.084
FHLDVEDYLSGVLILASELSRLSV [TSN] | 3.06 ± 0.74 | 3.04 ± 0.48
LFVGVDCFLLTAMAYDQFLAICRP [OR3A1] | 3.63 ± 0.6 | 3.13 ± 0.071
RGDGGIYIGSIMKGGAVAADGRIE [DVL3] | 3.65 ± 0.18 | 3.75 ± 0.21
DLLKKAKFHHSDCLSTWLLHFIAT [RHOBTB3] | 2.37 ± 0.44 | 2.34 ± 0.41
EDNEREGTENGAIDAVPVDENLFT [ZC3H15] | 5.54 ± 0.15 | 5.68 ± 0.23
TVSTMYYLWMCSTLALLLNFLACL [SCAMP3] | 3.13 ± 0.22 | 3.03 ± 0.63
LWLTASQPCSIVDVEFLPVYHPSP [LPCAT4] | 3.02 ± 0.74 | 2.53 ± 0.37
